According to US20100227400A1 (published 2010):
Numbering of substitutions follows the chain as printed. Names and notes keep the numbering of the source.

How the values were obtained:
[1] = biological target: the molecule itself; experiment: SDS-PAGE without boiling, self-association
[2] = biological target: the molecule itself; experiment: SDS-PAGE with and without boiling, intermolecular self-association
[3] = biological target: the molecule itself; experiment: oligomeric state of the mutant, self-association
[4] = biological target: the molecule itself; experiment: fluorescence excitation spectra, FRET within the oligomer
Description: Absorption/Fluorescence Spectra and Extinction Coefficients—Fluorescence spectra were taken with a Fluorolog spectrofluorimeter (Spex Industries, Edison, N.J.). Absorbance spectra of proteins were taken with a Cary ITV-V is spectrophotometer. […] Corrections were included in the quantum yield calculation for the refractive index difference between ethanol and water. For extinction coefficient determination, native protein absorbance was measured with the spectrophotometer, and protein concentration was measured by the BCA method (Pierce).

[5] = biological target: the molecule itself; experiment: analytical equilibrium centrifugation; model in which the tetramer dimerizes into an octamer
Description: The data were analyzed globally at 10,000, 14,000, and 20,000 rpm by nonlinear least-squares analysis using the Origin software package (Beckman). The goodness of fit was evaluated on the basis of the magnitude and randomness of the residuals, expressed as the difference between the experimental data and the theoretical curve and also by checking each of the fit parameters for physical reasonability.

[6] = biological target: the molecule itself; experiment: non-denaturing polyacrylamide gel electrophoresis, self-association
Description: The mutant proteins were prepared following standard methodology and analyzed with polyacrylamide gel electrophoresis as described (Baird et al., supra, 2000). […] This solution was centrifuged in a Beckman XL-1 analytical ultracentrifuge in PBS at 10,000 rpm, 12,000 rpm, 14,000 rpm, and 20,000 rpm.
No attempt was made to disrupt the A:B and C:D interfaces.

[7] = biological target: the molecule itself; experiment: analytical equilibrium ultracentrifugation, self-association
Description: The data were analyzed globally at 10K, 14K, and 20K rpm by nonlinear least-squares analysis using the ORIGIN software package supplied by Beckman. The goodness of fit was evaluated on the basis of the magnitude and randomness of the residuals, expressed as the difference between the experimental data and the theoretical curve and also by checking each of the fit parameters for physical reasonability.

[8] = biological target: T1, DsRed fused downstream of the Gal4 DNA binding domain (pGBT9) (Discosoma sp.); experiment: yeast two hybrid, negative control
T1 construct: range 1-147; also called DsRed-prey
Description: Yeast two hybrid assays were also performed. […] Alternatively, the yeast were grown on filters placed on plates lacking tryptophan and leucine to select for the bait and prey plasmids. After overnight growth, the filters were removed from the plates, frozen in liquid nitrogen, thawed, and incubated in X-gal overnight at 30° C. and two days at 4° C. to test for β-galactosidase activity (assayed by blue color development).

B1: tandem DsRed (tDsRed) (other)
chain: MRGSHHHHHHGMASMTGGQQMGRDLYDDDDKDPMRSSKNVIKEFMRFKVRMEGTVNGHEFEIEGEGEGRPYEGHNTVKLKVTKGGPLPFAWDILSPQFQYGSKVYVKHPADIPDYKKLSFPEGFKWERVMNFEDGGVVTVTQDSSLQDGCFIYKVKFIGVNFPSDGPVMQKKTMGWEASTERLYPRDGVLKGEIHKALKLKDGGHYLVEFKSIYMAKKPVQLPGYYYVDSKLDITSHNEDYTIVEQYERTEGRHHLFLGSTSGSGKPGSGEGSTKGMRSSKNVIKEFMRFKVRMEGTVNGHEFEIEGEGEGRPYEGHNTVKLKVTKGGPLPFAWDILSPQFQYGSKVYVKHPADIPDYKKLSFPEGFKWERVMNFEDGGVVTVTQDSSLQDGCFIYKVKFIGVNFPSDGPVMQKKTMGWEASTERLYPRDGVLKGEIHKALKLKDGGHYLVEFKSIYMAKKPVQLPGYYYVDSKLDITSHNEDYTIVEQYERTEGRHHLFL
binding result [1]: binds

B2: tandem DsRed-I125R (tDsRed-I125R) (other)
chain: B1 chain with I158R, I401R
binding result [2]: no binding

B3: DsRed-I125R (other)
chain: MRGSHHHHHHGMASMTGGQQMGRDLYDDDDKDPMRSSKNVIKEFMRFKVRMEGTVNGHEFEIEGEGEGRPYEGHNTVKLKVTKGGPLPFAWDILSPQFQYGSKVYVKHPADIPDYKKLSFPEGFKWERVMNFEDGGVVTVTQDSSLQDGCFIYKVKFRGVNFPSDGPVMQKKTMGWEASTERLYPRDGVLKGEIHKALKLKDGGHYLVEFKSIYMAKKPVQLPGYYYVDSKLDITSHNEDYTIVEQYERTEGRHHLFL
notes: Protomer
binding result [3]: binds

B4: T1 (Discosoma sp. variant fast T1 red fluorescent protein) (other)
chain: B3 chain with R35A, K38E, N39D, T54S, H74T, N75Q, V77A, C150S, R158I, T250A
notes: Protomer of a tetramer; also called fast tetramer T1; DsRed-Express
binding result [4]: binds

B5: DsRed obligate tetramer (polyHis-tagged) (other)
chain: B3 chain with R158I
notes: The tetramer as a unit, for the fitted tetramer-to-octamer dissociation constant; also called tetramer of polyHis-tagged DsRed
Kd [5]: 39 µM

B6: T1 DsRed-I125R (other)
chain: B3 chain with R35A, K38E, N39D, T54S, H74T, N75Q, V77A, C150S, T250A
notes: Protomer; forms a dimer; also called T1-I125R
binding result [3]: binds

B7: DsRed I125K (other)
chain: B3 chain with R158K
notes: Protomer; mixture of dimer and tetramer
binding result [6]: binds

B8: dimer2 (Discosoma variant red fluorescent protein) (other)
chain: MRGSHHHHHHGMASMTGGQQMGRDLYDDDDKDPMVASSEDVIKEFMRFKVRMEGSVNGHEFEIEGEGEGRPYEGTQTAKLKVTKGGPLPFAWDILSPQFQYGSKAYVKHPADIPDYKKLSFPEGFKWERVMNFEDGGVVTVTQDSSLQDGTLIYKVKFRGTNFPPDGPVMQKKTMGWEASTERLYPRDGVLKGEIHQALKLKDGGHYLVEFKTIYMAKKPVQLPGYYYVDTKLDITSHNEDYTIVEQYERSEGRHHLFL
notes: Protomer; forms an AC dimer
binding result [7]: binds

B9: Gal4 activation domain alone (pGAD GH without DsRed) (other, UniProt P04386 768-881, looked up)
chain: ANFNQSGNIADSSLSFTFTNSSNGPNLITTQTNSQALSQPIASSNVHDNFMNNEITASKIDDGNNSKPLSPGWTDQTAYNAFGITTGMFNTTTMDDVYNYLFDDEDTPPNPKKE
notes: range 768-881; Negative control of the two hybrid assay
binding result [8]: no binding
